The text below walks through data of US8221773B2, “Hydrogels and uses thereof” (University of Delaware, priority 2004, dated 2012).

A short description of data set [1]: Temperature dependent CD: temperature at which folding and self-assembly is triggered (Tgel). To be noted: pH 9 and low (20 mM) salt. It is filed as physicochemical. The source says:
At low temperature MAX1 is unfolded (and unassembled). At high temperature MAX1 folds into beta-sheet (and consequently self-assembles into a hydrogel). […] The relative hydrophobicity is MAX1>MAX2>MAX3 due to the isostructural but less hydrophobic substitutions of threonine for valine at the underlined positions. The most hydrophobic folds at the lowest temperature while the least hydrophobic folds at the highest temperature. This is a direct manifestations of the molecular parameter manipulations described in FIG. 2. Also shown are the calculated free energy of transfer of each corresponding unfolded peptide having an overall +8 charge state from octanol into water at 25° C. MAX1, the most hydrophobic has the highest free energy of transfer equal to 7.60 kcal/mol. MAX2 has a calculated transfer free energy of 6.88 kcal/mol, while the least hydrophobic MAX3 has the lowest energy of transfer of 6.45 kcal/mol.
This allows the characteristics of the hydrogels of the invention to be varied by adjusting these parameters. […] It is well known that water is better able to solvate hydrophobic groups at low temperatures. This phenomenon has been used to describe the cold denaturation of proteins where some proteins unfold at low temperatures, exposing their hydrophobic interiors to aqueous solvent. A 150 μM aqueous solution of MAX1 unfolds when cooled below room temperature. The CD spectrum at 5° C. is consistent with random coil conformation, FIG. 9A. However, warming the solution to 40° C. results in a spectra consistent with β-sheet structure. […] In fact, previous studies involving the pH induced folding and self-assembly of MAX1 were performed at 20° C. At this temperature, folding and self-assembly are slow enough to be conveniently monitored. At higher temperatures, folding and self: assembly leading to hydrogelation is fast (instantaneous to seconds depending on concentration). If the formation of hydrophobic interactions affects the folding and self-assembly process, then altering the hydrophobic content of MAX1 should affect the temperature at which folding is triggered. […] MAX2 is identical to MAX1 except that one valine residue has been replaced with the isostructural, but less hydrophobic residue, threonine. In MAX3, two valines are replaced with threonine residues. The resulting peptides vary in their hydrophobicity as evident by comparing calculated free energies of transfer from octanol into water, FIG. 9. […] Thus, the formation of hydrophobic contacts influences folding and self-assembly. […] Thus, the characteristics of the hydrogels of the invention can be varied by adjusting the amino acid residues of the peptides used to form the hydrogels to increase or decrease the hydrophobicity of the amino acid residues used.
There are reports of large polymers that are thermally responsive. The present invention provides the first system that employs temperature triggered folding to induce self-assembly. […] Heating the solution to 80° C. results in a spectra consistent with β-sheet structure. […] The temperatures used in both CD and rheology bracket the temperature (Tgel=60° C., FIG. 9) at which folding and consequent self-assembly is triggered. […] For example, free flowing peptide solutions could be prepared at room temperature and administered in vivo where the temperature of the body could induce gelation. […]

Data set [2] is described as follows: CD spectroscopy of peptide folding (random coil vs β-sheet). It is filed as physicochemical. The protocol: Time-dependent circular dichroism (CD) studies support a hydrogelation mechanism consistent with intramolecular hairpin formation followed by self-assembly. […] At temperatures >25° C. the folding and self-assembly of MAX1 occurs on the order of seconds. […] This behavior is consistent across all spectro- and microscopic methods used to interrogate MAX1. For example, at micromolar concentrations used for the CD studies shown in FIGS. 4A and 4B, self-assembly takes hours at 20° C. At millimolar concentrations, such as those used in the rheological studies described below, self-assembly leading to hydrogel takes minutes at 20° C.
The reversibility of the folding and self-assembly process was investigated by measuring θ216 as a function of pH and time as shown in FIG. 4C. CD of a stirred solution of MAX1 at pH 5.5 indicates random coil conformation. Adjusting the pH to 9.0 by the addition of NaOH results in β-sheet formation as expected. However, subsequent adjustment of the pH to 6.0 results in complete loss of sheet signal and full recovery of random coil signal. […] Again, this reversible behavior is not observed in hydrogels formed from amyloid/prion-like fibrils.
In some embodiments of the invention, various functionalities (e.g., cell adhesion epitopes, receptor agonists, receptor antagonists, ligands, small molecules, etc) may be incorporated into the hairpin hydrogel scaffold. One way to accomplish this would be to functionalize one or more amino acid side chains of the peptide. […] In some embodiments, the moieties to be incorporated at a particular side chain may be much larger (e.g. RGD-based motifs) and may contain charged residues. MAX5 (VKVKVKVKV^DPPTKVKEKVKV-NH2) was prepared to investigate the possibility of incorporating a charged residue on the hydrophobic face of MAX1. The sequence contains a glutamic acid residue at position 16 which is negatively charged at basic pH where MAX1 normally folds and assembles. […] However, alterations to the hydrophilic face of MAX1 are well tolerated. Sequences in which one or two lysine residues are replaced with other residues such as cysteine, serine, and glutamic acid are capable of folding and self-assembly into rigid hydrogels (data not shown).
The peptides described above contain identical turn sequences, namely (-V^DPPT-). This sequence has a strong propensity to form a type II′ turn and therefore helps to drive intramolecular folding. Since intramolecular folding must occur prior to self-assembly, alterations to this turn sequence that inhibit turn structure formation can be used to modulate intramolecular folding and self-assembly leading to hydrogelation. MAX9 was prepared to probe the importance of the turn region (VKVKVKVKV^LPPTKVKVKVKV-NH2). […]

Where no end group is shown, it is not given here.

In the case of “VKVKVKVK V^DPPT KVKVKVKV-NH2 (not fully specified (C-terminus)) [MAX1]”, the “transition temperature from random coil to folded β-sheet structure” value in data set [1] was “around 25 °C”. Moreover, the “time to plateau of β-sheet formation (ellipticity at 218 nm)” value in data set [2] (2.0 wt %, pH 7.4, 150 mM KF, 37° C) is 15 min. Moreover, the “reversibility of folding and self-assembly with pH” value in data set [2] (stirred 300 μM solution, pH 5.5 to 9.0 to 6.0, 20° C) is on record as “reversible”.
